B1: Twister Ribozyme (parent)
chain: AACACUGCCAAUGCCGGUCCCAAGCCCGGAUAAAAGUGGAGGGGGCGG

Variants of: B1
Experiment: self-cleavage, relative activity (ratio to wild type); higher = more cleavage; co-transcriptional

In order of falling self-cleavage:
1. A10G G48C  1.2
2. A10G G16A  1.13
3. A11G G48C  1.09
4. A10U G48C  1.09
5. A10G G29A  1.09
6. A10U A33C  1.08
7. A10G G28A  1.08
8. A10U G29A  1.08
9. A10U A33U  1.07
10. A10U G38A  1.04
11. A10G G28U  1.04
12. A10G A33C  1.03
13. A10G C46U  1.02
14. A10G  1.02
15. A10G A32C  1.02
16. A10C  1.01
17. A10G G47U  1.01
18. A10C G48U  1.01
19. A10U  0.982
20. A11C G47U  0.977
21. A10G C14A  0.975
22. A10G A33U  0.963
23. A11C G44A  0.955
24. A10C A34U  0.951
25. A11G C46U  0.943
26. A11G A35U  0.941
27. A11C G45A  0.938
28. A10U G48U  0.933
29. A10U G38C  0.933
30. A10C C27U  0.932
31. A10U U12C  0.931
32. A10G G38C  0.93
33. A10U G44A  0.924
34. A10U A30U  0.922
35. A10G A35G  0.92
36. A10U U31C  0.919
37. A10U A30G  0.915
38. A10G G38U  0.91
39. A11G A22C  0.904
40. A10C C46A  0.898
41. A10U G16A  0.89
42. A11C G44C  0.889
43. A11G G48A  0.884
44. A10C G45A  0.881
45. A10G G36C  0.855
46. A11G G28A  0.84
47. A10C C46U  0.839
48. A11C G47A  0.836
49. A10C G47A  0.834
50. A10C U31C  0.834
51. A10C G38U  0.832
52. A11C A32U  0.831
53. A11G A35G  0.826
54. A10U A33G  0.825
55. A10G G36U  0.823
56. A10C G48A  0.822
57. A10C A32C  0.821
58. A10C G38C  0.813
59. A11G G47A  0.812
60. A10C C19U  0.802
61. A11G G28C  0.801
62. A10G G36A  0.786
63. A11G G44C  0.784
64. A10U A30C  0.784
65. A10G G41U  0.781
66. A10C A22U  0.78
67. A10C U31A  0.776
68. A11C A32C  0.769
69. A10C G13A  0.764
70. A10U U12G  0.759
71. A10G G41A  0.748
72. A11G G28U  0.725
73. C9U U31C  0.708
74. A10U A34G  0.703
75. A10U U31A  0.694
76. A10G C27A  0.682
77. A10G C19G  0.677
78. A11C G29C  0.668
79. C9U U31A  0.667
80. A10C G45C  0.661
81. A11G A22U  0.66
82. A11C G47C  0.648
83. A10U C27A  0.645
84. C9U G29A  0.635
85. A11G G16A  0.627
86. A10U G41A  0.626
87. A10U G29C  0.617
88. A10U G41U  0.61
89. A10U C26A  0.607
90. A11C G45C  0.581
91. A10G G43U  0.576
92. C9U G28A  0.562
93. A11C C15U  0.545
94. A10U G39A  0.531
95. A10G G42A  0.509
96. C9U G28U  0.504
97. A10U G13U  0.489
98. A11G G39A  0.477
99. A11G C26U  0.466
100. A10C U18A  0.455
101. A10C A23G  0.453
102. A11G A23G  0.447
103. A10U C26U  0.437
104. A11G C25G  0.437
105. A11G A23C  0.422
106. A11C G42C  0.419
107. C9U U37G  0.419
108. A10C G13C  0.408
109. C9U G16A  0.405
110. A10G G41C  0.384
111. C9U G16U  0.373
112. A10U C19G  0.367
113. A10G C26G  0.354
114. A11C C27U  0.352
115. A11G G45C  0.343
116. A11C G41A  0.336
117. A10U C19A  0.331
118. A10G G39U  0.287
119. A10C A34C  0.283
120. A10U A34C  0.279
121. C9U C20U  0.264
122. A10U C26G  0.264
123. C9U U37A  0.26
124. A10C A22G  0.256
125. A11C A23G  0.249
126. A10U G41C  0.239
127. A11G C26G  0.234
128. A10U G39U  0.215
129. A10C C19A  0.214
130. A10C C20A  0.199
131. A10U A40G  0.191
132. A11C C27A  0.176
133. A10U C21A  0.175
134. A11C C14G  0.164
135. A10G C21U  0.162
136. C9U G45C  0.157
137. A11C A23U  0.149
138. A11C C20A  0.129
139. C9U G41C  0.128
140. A10U C21G  0.126
141. A10C C21A  0.124
142. A10C C21U  0.122
143. C9U U37C  0.122
144. A11G C21U  0.12
145. A11G G39C  0.119
146. A10G G39C  0.119
147. C9U C25G  0.113
148. A11G A40G  0.11
149. A11G C21A  0.107
150. A10G C27G  0.105
151. C9U G17U  0.102
152. A10U C21U  0.0991
153. A10C G24A  0.0991
154. A10U G24C  0.0965
155. A10C G24U  0.0955
156. A10U G24A  0.0831
157. A11C C27G  0.0803
158. C9U U18C  0.0748
159. C9U U18A  0.0726
160. C9U C21A  0.0683
161. C9U C20G  0.0672
162. A11G C21G  0.0655
163. A10C U18G  0.0601
164. A11C C15G  0.0591
165. C9U U18G  0.059
166. C9U C20A  0.0526
167. C9U G17C  0.0426
